Molecular target: mouse CBP TAZ1 (residues 340-439) (mouse, UniProt P45481 340-439)
Assay: ITC

Sequence of mouse CBP TAZ1 (residues 340-439) (P45481 340-439): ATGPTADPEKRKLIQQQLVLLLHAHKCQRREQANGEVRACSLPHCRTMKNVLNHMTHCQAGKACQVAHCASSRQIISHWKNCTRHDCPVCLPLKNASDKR

Kd: 700 nM
B1: human E2F4 transactivation domain (residues 390-407) (domain or fragment)
chain: HDYIYNLDESEGVCDLFD

— publication PMC6610666 (2019)
